Patent US5624818, “Nucleic acids encoding regulatory proteins that dimerize with Mad or Max” (Fred Hutchinson Cancer Research Center)

Assays:
[1] = target: Mad-1-His6 full length (Homo sapiens, UniProt Q05195 SEQ:1-221); experiment: EMSA; no Max present; conditions: tags: C-terminal His6 (pET11D); label: 32P
[2] = target: c-Myc:Max heterodimer (Homo sapiens, UniProt P01106-1;P61244-2 P01106-1:1-439,P61244-2:1-151); experiment: EMSA; supershifted by anti-Myc and anti-Max; 3 mM MgCl2, 50 mM KCl, RT; 5-fold excess cold CM-1 competes; conditions: label: 32P
Sequence of c-Myc:Max heterodimer (P01106 16-454, chain 1 of 2): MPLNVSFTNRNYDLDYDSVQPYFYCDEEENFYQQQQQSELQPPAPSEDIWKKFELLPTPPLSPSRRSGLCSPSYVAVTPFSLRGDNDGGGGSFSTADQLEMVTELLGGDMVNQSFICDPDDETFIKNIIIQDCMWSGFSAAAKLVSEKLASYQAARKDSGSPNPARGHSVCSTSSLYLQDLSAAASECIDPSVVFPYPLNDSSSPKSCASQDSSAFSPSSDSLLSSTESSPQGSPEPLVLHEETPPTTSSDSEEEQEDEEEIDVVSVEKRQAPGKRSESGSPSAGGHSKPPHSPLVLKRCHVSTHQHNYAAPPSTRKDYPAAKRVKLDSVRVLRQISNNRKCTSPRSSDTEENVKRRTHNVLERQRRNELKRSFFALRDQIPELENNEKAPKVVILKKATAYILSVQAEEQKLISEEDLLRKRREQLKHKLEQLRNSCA
Sequence of c-Myc:Max heterodimer (P61244 other isoform, or with tags, fused parts or gaps, chain 2 of 2): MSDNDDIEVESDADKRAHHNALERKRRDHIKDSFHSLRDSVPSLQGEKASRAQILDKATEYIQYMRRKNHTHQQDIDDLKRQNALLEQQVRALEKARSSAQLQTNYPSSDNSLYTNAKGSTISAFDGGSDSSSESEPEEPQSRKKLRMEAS
Method: The DNA-binding reaction was allowed to proceed at room temperature for 10 minutes.
FIG. 7A: the ability of in vitro translated Myc and Max proteins to bind to the CM-1 oligonucleotide (CACGTG core consensus) was assessed by electrophoretic mobility shift assay. […] Lysates were incubated with ^32P-labeled CM-1 prior to resolution in a 5 percent acrylamide gel. In experiments where antibodies were added, affinity purified antibody (1 mg) was added after formation of the nucleoprotein complex to minimize steric interference. To block the antibody effect, cognate immunogen (1 mg) was added.

[3] = target: c-Myc deltaN100:Max (Homo sapiens, UniProt P01106-1;P61244-2 P01106-1:101-439,P61244-2:1-151, c-Myc deletion of N-terminal 100 aa); experiment: EMSA; conditions: label: 32P
Sequence of c-Myc deltaN100:Max (P01106 116-454, stated change not applied, chain 1 of 2): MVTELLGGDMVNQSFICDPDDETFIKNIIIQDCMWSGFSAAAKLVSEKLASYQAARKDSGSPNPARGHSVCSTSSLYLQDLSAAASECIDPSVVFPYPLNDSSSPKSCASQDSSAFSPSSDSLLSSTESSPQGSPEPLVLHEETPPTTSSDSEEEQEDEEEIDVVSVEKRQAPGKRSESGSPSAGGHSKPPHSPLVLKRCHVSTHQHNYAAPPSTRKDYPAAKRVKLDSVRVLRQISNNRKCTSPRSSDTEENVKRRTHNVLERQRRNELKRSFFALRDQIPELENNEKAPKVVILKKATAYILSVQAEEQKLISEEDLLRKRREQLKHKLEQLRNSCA
Sequence of c-Myc deltaN100:Max (P61244 other isoform, or with tags, fused parts or gaps c-Myc deletion of N-terminal 100 aa | mutant, chain 2 of 2): as the sequence (P61244 other isoform, or with tags, fused parts or gaps, chain 2 of 2) above
Method: FIG. 7A: the ability of in vitro translated Myc and Max proteins to bind to the CM-1 oligonucleotide (CACGTG core consensus) was assessed by electrophoretic mobility shift assay. […] Lysates were incubated with ^32P-labeled CM-1 prior to resolution in a 5 percent acrylamide gel. In experiments where antibodies were added, affinity purified antibody (1 mg) was added after formation of the nucleoprotein complex to minimize steric interference. To block the antibody effect, cognate immunogen (1 mg) was added. […] CM-1 oligonucleotide alone (probe) and unprogrammed reticulocyte lysate (RL) served as background controls. FIG. 7B: The specificity of the Myc-Max shift was tested by competition with 5-, 50-, and 500-fold excess of unlabeled oligonucleotide. […] FIG. 7C: Requirements for the formation of a nucleoprotein complex. Various c-Myc mutants (see FIG. 4 discussion for abbreviations) were assayed for their ability to bind CM-1 in association with Max.
To ascertain whether the association of Myc and Max in a nucleoprotein complex required the same sequences, some of the c-Myc mutants were examined for their ability to bind to CM-1 in a complex with Max.

[4] = target: GST-C92Myc:Max heterodimer (Homo sapiens, UniProt P01106;P61244-2 P01106:363-454,P61244-2:1-151); experiment: EMSA; heterodimer favored over Max:Max; conditions: tags: GST on Myc; label: 32P
Sequence of GST-C92Myc:Max heterodimer (P01106 363-454, chain 1 of 2): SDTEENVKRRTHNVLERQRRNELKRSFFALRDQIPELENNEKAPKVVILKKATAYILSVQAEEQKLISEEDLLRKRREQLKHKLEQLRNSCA
Sequence of GST-C92Myc:Max heterodimer (P61244 other isoform, or with tags, fused parts or gaps, chain 2 of 2): as the sequence (P61244 other isoform, or with tags, fused parts or gaps, chain 2 of 2) above
Method: The ability of Mad-1 to bind DNA and interact with Max and Myc was examined by the electrophoretic mobility shift assay. […] Non-fusion GST protein was used as a control. […] As a control, the specificity of the electrophoretic mobility shift was assayed by including antibodies to either Max (αMax), GST (αGST), or Myc (αMyc) to the binding reaction. The activity of these antibodies was inhibited by adding the appropriate immunoglobulin to the binding reaction ("+block"). The lanes marked "–" had no additional protein present in the binding reaction.
The ability of Mad-1 to bind DNA and interact with Max and Myc was examined by the EMSA. […] In each experiment the specificity of the mobility shift was assayed by including antibodies to either Max((xMax), GST((xGST) or Myc ((xMyc) were added to the binding reaction.

Sequence of Mad-1-His6 full length (Q05195 whole entry): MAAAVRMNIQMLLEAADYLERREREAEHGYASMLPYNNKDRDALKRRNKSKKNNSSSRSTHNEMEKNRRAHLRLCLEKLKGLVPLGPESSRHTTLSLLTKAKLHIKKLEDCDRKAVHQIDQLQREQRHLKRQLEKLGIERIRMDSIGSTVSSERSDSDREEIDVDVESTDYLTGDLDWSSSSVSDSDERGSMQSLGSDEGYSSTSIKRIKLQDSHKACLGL

B1: CM-1 (dsDNA)
DNA 1: CCCCCACCACGTGGTGCCTGA
DNA 2: TCAGGCACCACGTGGTGGGGG
binding result [1]: no binding
binding result [2]: binds
binding result [3]: binds
binding result [4]: binds
